Data: publication PMC4655364, “HdeB chaperone activity is coupled to its intrinsic dynamic properties” (Scientific Reports, 2015)

Biological target: the molecule itself
Assay: NMR backbone 15N relaxation (R2/R1, model-free analysis); pH 7.0, 5.0, 4.5 and 4.0; 25 °C, 800 MHz; 50 mM sodium phosphate, 45 mM citric acid

B1: E. coli HdeB (natural protein, UniProt P0AET2 30-108, looked up)
chain: ANESAKDMTCQEFIDLNPKAMTPVAWWMLHEETVYKGGDTVTLNETDLTQIPKVIEYCKKNPQKNLYTFKNQASNDLPN
notes: HdeB, periplasmic acid-resistant chaperone of E. coli; 79 residues; numbers count on: the mature protein, with the signal peptide excluded; Expressed from pET-28a(+); It speaks of 79 residues and numbers them on the mature protein; Samples were 15N- or 13C/15N-labelled; Each monomer has a Cys10-Cys58 disulfide bridge; also called HdeB dimer; HdeB homo-dimer; source: E. coli BL21(DE3)-T1R, …
- stoichiometry N: 2
